In patent US20250179152A1 (TEXAS A AND M UNIVERSITY SYSTEM, published 2025):

Target: RBD protein of SARS-COV-1 (SARS-CoV-1, UniProt P59594 306-527)
Assay: ELISA ('the same binding assay')

B1: FSR16m (designed binder)
chain: MGMEQKLISEEDLDGYIPEAPRDGQAYVRKDGEWVLLSTFLGGGGSLQGGGGSLQGSDLGKKLLEAARAGQDDEVRILMANGADVNALDLFGVTPLHLAAERGHLEIVEVLLKNGADVNAGDAFGRTPLHLAALGGHLEIVEVLLKNGADVNACDLYGVTPLHLAAGLGHLEIVEVLLKNGADVNAQDKFGKTAFDISIDNGNEDLAEILQSSSKLAAALEHHHHHH
  binding result: no binding
